Values joined by “and” are separate entries in the source; they are usually repeats but may differ in a detail not shown here. Equal values may be shown once.
Conditions: Escherichia coli (strain K12); pH 7.6; 25 °C; GdnHCl; CD; HEPES 10 mM; KCl 100 mM; transition: 3; reversible: yes; whole UniProt chain shown

B1: Nickel-responsive regulator wild type, P0A6Z6 (protein)
chain: MQRVTITLDDDLLETLDSLSQRRGYNNRSEAIRDILRSALAQEATQQHGTQGFAVLSYVYEHEKRDLASRIVSTQHHHHDLSVATLHVHINHDDCLEIAVLKGDMGDVQHFADDVIAQRGVRHGHLQCLPKED
- denaturant midpoint (higher = more stable): 1.2 M and 2.8 M

From FireProtDB (doi:10.1021/bi049405c)
